Experimental data taken from publication PMC3901001.

Target: full-length human α isoform of CaMKII (CaMKIIα), wild type (human) (UniProt Q9UQM7)
Assay: single-molecule TIRF colocalisation; mixed with ATP in the absence of Ca2+/CaM (37°C by the DLS legend)

UniProt Q9UQM7, sequence (Q9UQM7 whole entry, canonical isoform): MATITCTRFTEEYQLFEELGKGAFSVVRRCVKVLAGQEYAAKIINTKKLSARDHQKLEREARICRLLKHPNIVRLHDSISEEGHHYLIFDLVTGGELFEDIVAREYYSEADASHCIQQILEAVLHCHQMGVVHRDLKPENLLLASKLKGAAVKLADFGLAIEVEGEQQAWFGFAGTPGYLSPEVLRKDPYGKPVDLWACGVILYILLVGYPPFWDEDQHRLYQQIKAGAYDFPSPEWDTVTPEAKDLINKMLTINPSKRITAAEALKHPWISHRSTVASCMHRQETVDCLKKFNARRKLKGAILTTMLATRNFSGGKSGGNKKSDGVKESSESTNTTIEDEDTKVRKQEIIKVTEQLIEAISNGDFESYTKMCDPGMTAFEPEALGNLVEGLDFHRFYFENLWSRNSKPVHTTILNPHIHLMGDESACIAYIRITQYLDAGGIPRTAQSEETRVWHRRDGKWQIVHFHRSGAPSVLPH

CaMKII^T286D, constitutively active mutant of full-length human CaMKIIα (enzyme)
percent colocalisation (plateau): 60%
